Tested on: Escherichia coli TOP10
Experiment: shrunken log2 fold change of peptide-encoding DNA abundance (4.5 h post-induction vs induction); higher = less antimicrobial activity (less host growth inhibition)
Details: time post-induction: 4.5 h; library: site-saturation at positions 5, 18, 19, 20
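Also: peptides expressed intracellularly from a pBAD plasmid library in pooled LB shake-flask culture, induced with 0.3% L-arabinose, DNA abundance read by NGS, three biological replicates, DESeq2 with apeglm shrinkage.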

Sequence: RRIRYRPPRLPRPRPRPICYPRP
- shrunken log2 fold change: -0.691

Sequence: RRIRPRPPRLPRPRPRPKPPPRP
- shrunken log2 fold change: 0.538

Sequence: RRIRKRPPRLPRPRPRPRQSPRP
- shrunken log2 fold change: 0.0892

Sequence: RRIRRRPPRLPRPRPRPQKGPRP
- shrunken log2 fold change: -0.138

Sequence: RRIRRRPPRLPRPRPRPGWDPRP
- shrunken log2 fold change: 0.0298

Sequence: RRIRMRPPRLPRPRPRPPCTPRP
- shrunken log2 fold change: 0.738

Sequence: RRIRARPPRLPRPRPRPCDYPRP
- shrunken log2 fold change: -0.295

Sequence: RRIRYRPPRLPRPRPRPDEFPRP
- shrunken log2 fold change: 0.0196

Sequence: RRIRERPPRLPRPRPRPVELPRP
- shrunken log2 fold change: -0.0276

Sequence: RRIRGRPPRLPRPRPRPGCNPRP
- shrunken log2 fold change: 0.773

Sequence: RRIRKRPPRLPRPRPRPNGHPRP
- shrunken log2 fold change: -0.0369

Sequence: RRIRNRPPRLPRPRPRPFICPRP
- shrunken log2 fold change: -0.38

Sequence: RRIRMRPPRLPRPRPRPLSNPRP
- shrunken log2 fold change: -0.0789

Sequence: RRIRMRPPRLPRPRPRPFPFPRP
- shrunken log2 fold change: -0.356

Sequence: RRIRFRPPRLPRPRPRPLYVPRP
- shrunken log2 fold change: -0.631

Sequence: RRIRWRPPRLPRPRPRPYEMPRP
- shrunken log2 fold change: -0.893

Sequence: RRIRNRPPRLPRPRPRPLMLPRP
- shrunken log2 fold change: -0.842

Sequence: RRIRNRPPRLPRPRPRPDKDPRP
- shrunken log2 fold change: -0.253

Sequence: RRIRGRPPRLPRPRPRPLSLPRP
- shrunken log2 fold change: 0.419

Sequence: RRIRWRPPRLPRPRPRPMPEPRP
- shrunken log2 fold change: -0.236

Sequence: RRIRMRPPRLPRPRPRPKCYPRP
- shrunken log2 fold change: -0.0362

Sequence: RRIRPRPPRLPRPRPRPFQPPRP
- shrunken log2 fold change: -0.0843

Sequence: RRIRARPPRLPRPRPRPGFDPRP
- shrunken log2 fold change: 0.719

Sequence: RRIRARPPRLPRPRPRPWGFPRP
- shrunken log2 fold change: 0.206

Sequence: RRIRMRPPRLPRPRPRPYVGPRP
- shrunken log2 fold change: 0.0299

Sequence: RRIRDRPPRLPRPRPRPWFRPRP
- shrunken log2 fold change: -0.44

Sequence: RRIRFRPPRLPRPRPRPAYCPRP
- shrunken log2 fold change: -0.219

Sequence: RRIRPRPPRLPRPRPRPGQQPRP
- shrunken log2 fold change: 0.167

Sequence: RRIRFRPPRLPRPRPRPIQGPRP
- shrunken log2 fold change: 0.0616

Sequence: RRIRFRPPRLPRPRPRPLGKPRP
- shrunken log2 fold change: -0.17

Sequence: RRIRVRPPRLPRPRPRPMQLPRP
- shrunken log2 fold change: -0.0252

Sequence: RRIRKRPPRLPRPRPRPGRDPRP
- shrunken log2 fold change: 0.688

Sequence: RRIRCRPPRLPRPRPRPADCPRP
- shrunken log2 fold change: -0.0557

Sequence: RRIRMRPPRLPRPRPRPGLIPRP
- shrunken log2 fold change: 0.133

Sequence: RRIRYRPPRLPRPRPRPLTQPRP
- shrunken log2 fold change: -0.416

Sequence: RRIRIRPPRLPRPRPRPITMPRP
- shrunken log2 fold change: -1.08

Sequence: RRIRERPPRLPRPRPRPYGLPRP
- shrunken log2 fold change: -0.0303

Sequence: RRIRFRPPRLPRPRPRPPLPPRP
- shrunken log2 fold change: 0.661

Sequence: RRIRRRPPRLPRPRPRPSGWPRP
- shrunken log2 fold change: 0.333

Sequence: RRIRIRPPRLPRPRPRPIRMPRP
- shrunken log2 fold change: -0.346

Sequence: RRIRRRPPRLPRPRPRPGDAPRP
- shrunken log2 fold change: 0.782

Sequence: RRIRGRPPRLPRPRPRPNYEPRP
- shrunken log2 fold change: 0.161

Sequence: RRIRVRPPRLPRPRPRPCQNPRP
- shrunken log2 fold change: -0.293

Sequence: RRIRKRPPRLPRPRPRPLNMPRP
- shrunken log2 fold change: 0.0134

Sequence: RRIRVRPPRLPRPRPRPRCAPRP
- shrunken log2 fold change: 0.517

Sequence: RRIRDRPPRLPRPRPRPYKLPRP
- shrunken log2 fold change: -1.01

Sequence: RRIRKRPPRLPRPRPRPRRWPRP
- shrunken log2 fold change: 0.717

Sequence: RRIRKRPPRLPRPRPRPLQDPRP
- shrunken log2 fold change: 0.485

Sequence: RRIRCRPPRLPRPRPRPDPQPRP
- shrunken log2 fold change: 0.17

Sequence: RRIRLRPPRLPRPRPRPVKFPRP
- shrunken log2 fold change: -0.316

Sequence: RRIRARPPRLPRPRPRPVNPPRP
- shrunken log2 fold change: -0.00864

Sequence: RRIRYRPPRLPRPRPRPLMAPRP
- shrunken log2 fold change: -0.681

Sequence: RRIRVRPPRLPRPRPRPGHEPRP
- shrunken log2 fold change: -0.0501

Sequence: RRIRSRPPRLPRPRPRPHCEPRP
- shrunken log2 fold change: -0.0301

Sequence: RRIRPRPPRLPRPRPRPHRWPRP
- shrunken log2 fold change: 0.25

Sequence: RRIRMRPPRLPRPRPRPMPSPRP
- shrunken log2 fold change: 0.262

Sequence: RRIRTRPPRLPRPRPRPPKLPRP
- shrunken log2 fold change: -0.0543

Sequence: RRIRTRPPRLPRPRPRPIRFPRP
- shrunken log2 fold change: -0.0183

Sequence: RRIRQRPPRLPRPRPRPIFPPRP
- shrunken log2 fold change: 0.122

Sequence: RRIRVRPPRLPRPRPRPWYNPRP
- shrunken log2 fold change: -0.153

Sequence: RRIRLRPPRLPRPRPRPTEPPRP
- shrunken log2 fold change: 0.0962

Sequence: RRIRERPPRLPRPRPRPPFNPRP
- shrunken log2 fold change: -0.275

Sequence: RRIRRRPPRLPRPRPRPPQEPRP
- shrunken log2 fold change: 0.405

Sequence: RRIRQRPPRLPRPRPRPNAIPRP
- shrunken log2 fold change: -0.393

Sequence: RRIRQRPPRLPRPRPRPRTAPRP
- shrunken log2 fold change: 0.0467

Sequence: RRIRHRPPRLPRPRPRPLLGPRP
- shrunken log2 fold change: -0.107

Sequence: RRIRTRPPRLPRPRPRPFTVPRP
- shrunken log2 fold change: -0.00127

Sequence: RRIRSRPPRLPRPRPRPEHSPRP
- shrunken log2 fold change: -0.182

Sequence: RRIRKRPPRLPRPRPRPECTPRP
- shrunken log2 fold change: 3.42

Sequence: RRIRYRPPRLPRPRPRPLTCPRP
- shrunken log2 fold change: -0.566

Sequence: RRIRFRPPRLPRPRPRPGFAPRP
- shrunken log2 fold change: 0.374

Sequence: RRIRTRPPRLPRPRPRPLFLPRP
- shrunken log2 fold change: -0.184

Sequence: RRIRYRPPRLPRPRPRPWDLPRP
- shrunken log2 fold change: 0.0112

Sequence: RRIRVRPPRLPRPRPRPACNPRP
- shrunken log2 fold change: -0.0138

Sequence: RRIRIRPPRLPRPRPRPMKPPRP
- shrunken log2 fold change: -0.00581

Sequence: RRIRTRPPRLPRPRPRPLDLPRP
- shrunken log2 fold change: 0.0209

Sequence: RRIRLRPPRLPRPRPRPTMIPRP
- shrunken log2 fold change: -0.164

Sequence: RRIRSRPPRLPRPRPRPCAFPRP
- shrunken log2 fold change: -0.236

Sequence: RRIRERPPRLPRPRPRPRMQPRP
- shrunken log2 fold change: -0.0907

Sequence: RRIRDRPPRLPRPRPRPWGHPRP
- shrunken log2 fold change: 0.0208

Sequence: RRIRHRPPRLPRPRPRPPYEPRP
- shrunken log2 fold change: -0.486

Sequence: RRIRNRPPRLPRPRPRPECLPRP
- shrunken log2 fold change: 0.254

Sequence: RRIRWRPPRLPRPRPRPNKYPRP
- shrunken log2 fold change: -0.481

Sequence: RRIRIRPPRLPRPRPRPFGQPRP
- shrunken log2 fold change: -0.259

Sequence: RRIRRRPPRLPRPRPRPRTIPRP
- shrunken log2 fold change: 0.134

Sequence: RRIRGRPPRLPRPRPRPMEPPRP
- shrunken log2 fold change: 0.245

Sequence: RRIRARPPRLPRPRPRPESTPRP
- shrunken log2 fold change: 1.05

Sequence: RRIRARPPRLPRPRPRPQLGPRP
- shrunken log2 fold change: -0.0732

Sequence: RRIRMRPPRLPRPRPRPYTIPRP
- shrunken log2 fold change: 0.0978

Sequence: RRIRVRPPRLPRPRPRPHQDPRP
- shrunken log2 fold change: -0.264

Sequence: RRIRYRPPRLPRPRPRPIQWPRP
- shrunken log2 fold change: -0.00101

Sequence: RRIRWRPPRLPRPRPRPPNTPRP
- shrunken log2 fold change: 0.142

Sequence: RRIRFRPPRLPRPRPRPLMWPRP
- shrunken log2 fold change: 0.0935

Sequence: RRIRERPPRLPRPRPRPHWRPRP
- shrunken log2 fold change: 0.198

Sequence: RRIRHRPPRLPRPRPRPRIGPRP
- shrunken log2 fold change: 0.172

Sequence: RRIRERPPRLPRPRPRPWYVPRP
- shrunken log2 fold change: -0.612

Sequence: RRIRHRPPRLPRPRPRPLQNPRP
- shrunken log2 fold change: -0.00367

Sequence: RRIRIRPPRLPRPRPRPNLMPRP
- shrunken log2 fold change: -0.377

Sequence: RRIRDRPPRLPRPRPRPNFSPRP
- shrunken log2 fold change: -0.0622

Sequence: RRIRIRPPRLPRPRPRPEPFPRP
- shrunken log2 fold change: 0.126

Sequence: RRIRIRPPRLPRPRPRPEVYPRP
- shrunken log2 fold change: -0.0738

Sequence: RRIRTRPPRLPRPRPRPIPQPRP
- shrunken log2 fold change: 0.284

Sequence: RRIRFRPPRLPRPRPRPKWRPRP
- shrunken log2 fold change: 0.413

Sequence: RRIRPRPPRLPRPRPRPLDDPRP
- shrunken log2 fold change: 0.0437

Sequence: RRIRMRPPRLPRPRPRPRYEPRP
- shrunken log2 fold change: -0.0771

Sequence: RRIRHRPPRLPRPRPRPKQSPRP
- shrunken log2 fold change: -0.248

Sequence: RRIRARPPRLPRPRPRPPIAPRP
- shrunken log2 fold change: 0.534

Sequence: RRIRRRPPRLPRPRPRPLKRPRP
- shrunken log2 fold change: 0.161

Sequence: RRIRERPPRLPRPRPRPRCEPRP
- shrunken log2 fold change: 0.0736

Source: the supplement of paper PMC9112550, “Optimization of the antimicrobial peptide Bac7 by deep mutational scanning” (BMC Biology, 2022)
